Experimental findings from patent US20230220078A1 (NAVI BIO THERAPEUTICS, published 2023) are described below.

Assay [1] deals with T1, PVRL4_864 (94-957, 864 bps, r864p) recombinant fragment of Nectin-4 (PVRL4_HUMAN) (human, UniProt Q96NY8 32-319).
T1 construct: His-tagged and purified on Ni-sepharose from a 6M urea lysate; also called his-PVRL4_864
T1 sequence (looked up): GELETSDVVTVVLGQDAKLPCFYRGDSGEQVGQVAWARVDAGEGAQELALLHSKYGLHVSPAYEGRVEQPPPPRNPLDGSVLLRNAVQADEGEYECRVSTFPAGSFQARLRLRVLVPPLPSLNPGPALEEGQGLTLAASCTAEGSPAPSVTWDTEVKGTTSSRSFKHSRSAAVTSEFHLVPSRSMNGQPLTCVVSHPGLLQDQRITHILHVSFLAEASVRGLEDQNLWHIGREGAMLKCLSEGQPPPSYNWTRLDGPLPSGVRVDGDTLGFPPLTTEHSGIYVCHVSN
Briefly: competitive ELISA of purified scFv on r864p.

The target in assay [2] is T1, PVRL4_864 (94-957, 864 bps, r864p) …. Briefly: ELISA titration of purified scFv on PVRL4 864.
The target is the same in assay [3]. The experiment in a line: competitive ELISA of purified scFv on r864p; competitive ELISA, purified scFv S21 on r864p.

B1: NECTIN4-scFv-S21 (scFv, V domains shown)
VH: AVTLDESGGGLQTPGGALSLVCKASGFTFSSYAMMWVRQAPGKGLEYIAGIRSDGRYTYYGAAVKGRATISRDNGQSTVRLQLNNLRAEDTGTYYCAKSGVTDTSSSTYSSASNIDAWGHGTEVIVSS
VL: ALTQPSSVSANLGGTVKITCSGGSGSYGWYQQKSPGSAPVTLIYANTNRPSDIPSRFSGSKSGSTSTLTITGVQAEDVAVYYCGSRDSSYVGIFGAGTTLTVL
notes: Chicken-derived scFv from a pComb3X phage library, tested as purified scFv; also called anti-PVRL4 scFv S21; NECTIN4-scFv-521
In the case of B1, in assay [1], the 50% concentration turned out to be 52.5 µg/mL. In addition, the “concentration of scFv at OD450 nm value of 1” value (from here on “concentration of scFv”) in assay [2] amounted to 0.02 µg/mL. In assay [3], the dissociation constant (Kd) was found to be 1410 nM.

B2: NECTIN4-scFv-S6 (scFv, V domains shown)
VH: TVTLDESGGGLQTPGGGLSLVCKGSGFTFSSNGMAWVRQAPGKGLEFVAGVNAAGSWTGYGAAVKGRATISRDNGQSTVRLQLNDLRAEDTGTYYCAKTADDWYGADDIDAWGHGTEVIVSS
VL: ALTQPSSVSTNLGETVEITCSGSSGYGYGWYQQKSPGSAPVTVIYSNDKRPSDIPSRFSGSASGSTATLTITGVRAEDEAVYLCGGYDSSASYVGIFGAGTTLTVL
notes: Chicken-derived scFv, tested as purified scFv
For the molecule B2, in assay [1], the 50% concentration was 34.9 µg/mL and the Kd was 942 nM. In addition, the “concentration of scFv” value in assay [2] is 0.31 µg/mL.

B3: NECTIN4-scFv-L1 (scFv, V domains shown)
VH: AVTLDESGGGLQAPGGGLSLVCRASGFTFSSHGMFWVRQAPGKGLEFVAGISDAGSWTGYGAAVKGRATISRDSGQSTVRLQLNNLRAEDTGIYYCAKSAGDWYGADDIDAWGHGTEVIVSS
VL: ALTQPSSVSANPGETVKITCSGGSSNYYGWYQQKSPGSAPVTLIYNNNKRPSDIPSRFSASKSGSTHTLTITGVRAEDEAVYFCGGWDKSAGIFGAGTTLTVL
notes: as for B2
On to B3, for which, in assay [1], the 50% concentration amounted to 34.7 µg/mL and the Kd was 939 nM. For the same molecule, the “concentration of scFv” value in assay [2] stood at 0.04 µg/mL.
